A short description of data set [1]: 14C assay with IPTG-induced recombinant E. coli cells: 14CO2 captured from [14C]-carboxyl-labeled dicamba. As to conditions: for Enzymatic Detection level: dicamba decarboxylation activity of the protein of the given SEQ ID NO, High / Low / No; for Dicamba Decarboxylase Activity: induced recombinant E. coli cells, [14C]-carboxyl-labeled dicamba, 14CO2 capture.
Data set [2] can be described thus: Saturation mutagenesis of SEQ ID NO:109: dicamba decarboxylation activity of point mutants (carbon dioxide released). As to conditions: decarboxylation activity (carbon dioxide released) of point mutant compared with unmutated backbone protein; backbone SEQ ID NO: 109.

B1: 86 (protein, listed as Sphingopyxis alaskensis)
chain: MALGASVASREASAQMAKAPMRKIATEEAFATPELAKAWLEIARSEPNSSLDIPTGILSIFDNPRPGSNQDRFRRQLLDVDAERIRDMDEAGVDMQLLSVTIPGVQIFEPARAGELAVTTNDHLAAAIARRPTRFAGLACFAPHDPVQATREMERAVNALGLKGFIVNSHTQDLYLDDPRFAPVLEAAQSLDCPIYLHPRAPSNGMAAPFRDYSMGGSIWGFGVEAGTHAVRMILSGVFDRYPRLRIVLGHMGEALPFWMWRLDHMAARRAKDGRMKPLSLAPSEYFKRNFAVTTSGFESPDVLDLVIKVAGIENIMWAIDYPYESSRDAVTFIEGADLTASQRASIFHRNAVRHFRLS
As to B1, in data set [1], the “Enzymatic Detection level” value is “Low” and the “Dicamba Decarboxylase Activity” value is “Low”. Further, the “Fold Activity” value in data set [2] was 1.4.

B2: 75 (protein, listed as Ectocarpus siliculosus)
chain: MAKIDSYTHFACPAFMDHLEAESGHPMVFRGLFSSIPELSDIDLRIRYMDEHGIDVHCLVPLPWLECEPGLHADEGKALEACRIANDEMARVVARFPDRLIGVALIPTTTEQAMIQETTRAVKELGMAGVALFVGPTAKPPDMACFEGLYRTCEELGAVVWMHPCRPQSYADYDSYKGEGSKHQIWNTFGWIYDTSVAMVHIALAGVFRRYPGLKVVTHHHGAMVPFFTARFDTQRRNFQEVEGDDLLEDLRLFYCDTATFGESAANIQQAIDFFGKSQVLFGTDTPMDMGTRGMFTRTTIASVEALGAAPEDKESFYAGNVLDMLGERFAGISGARGAVAARPKGDSTRIAASL
As for B2, in data set [1], the “Enzymatic Detection level” value is recorded as “Low” and the “Dicamba Decarboxylase Activity” value is given as “Low”. For the same molecule, in data set [2], the “Fold Activity” value amounted to 1.7.

B3: 90 (protein)
chain: MAATIDRVLYLGNATQRRYTSATVSVPRIFGKVALEEHVGTSIWAKYNLTPPANAVVGVLNRPPTLPNTLDTIARLDDINGRLSSMNHSGIGYVIVSLSSPGIQGVHDTALAIKFSTDINDELYLKYANAYPDKFAFFATVPMQDPVAAASELERAVSLLGAKGAAINGYTDIGPPGNSTTRYLDDPINAPFWSKVAALNVPIYLHPRAPPPSQQLVYNYPNNSLSAYPGLVTGGFAYGAETAVHALRLMLSGLFDTHPNIQIILGHAAEGLPFLIHRSDTQLAAEVPGTNGPYKRPLRYYLRNNFYATLSGVRRLSTTQCTLAEMGEERVLFSVDYPFQSNEDAADWFDGVEGMSVETKRKVARGNARRLFNLTVDLDERQIDGDFM
modifications: Pyrenophora tritici-repentis
Consider B3, for which, in data set [1], the “Enzymatic Detection level” value was “Low” and the “Dicamba Decarboxylase Activity” value was “Low”. Further, the “Fold Activity” value in data set [2] is recorded as 1.7.

B4: 84 (protein, listed as Mycobacterium rhodesiae)
chain: MASLIALEEHYAWDPASEGNVVATWLRANNGVAYDRLYDRGPLRIEQMDAAGIDFQILSLFDPGVQDEVDAVRAVDLARRANDDLAESVRANPSRFGGFATLATQQPDAAVAEFDRAVTELGLVGGLINGHCQGRYLDDPAYEALFSRAEALGAPIYLHPTTPHPAVMDAWFAPYVGDGLHLASWGFAAETGTHVLRLIYSGLFDKFPRLQMIIGHLGEMLPFAAYRIDRYYGLGGGGTGHTLQHLPSDYLRNNFHVTTSGNFCSPALDCTLDVMGADRVMFSVDYPMDDNQTGADFLASYPMDDTNRRKVASENALRLFGDRIPAALRN
Take B4: in data set [1], the “Enzymatic Detection level” value is listed as “Low” and the “Dicamba Decarboxylase Activity” value is “Low”. Further, the “Fold Activity” value in data set [2] is 1.

B5: 83 (protein, listed as Mycobacterium rhodesiae)
chain: MALIALEEHYAWSPVSAGNVVGSWLETHNVTAYQRLYDRGPLRLEQMDAAGIDFQILSLFDPGVQDDDDTARAVENARRANDDLAETVRAAPDRFGGFATLAPQDPDAAAAELERAVGELGLVGGLINGHTHGRYLDDPAYLGLFECAQRLGVPIYLHPTTPHPAVMDAWFAPYVKDGLHLASWGFAAETGTHALRLIYSGLFDTFPRLQMILGHLGEMLPYAAYRIDRYYGLGGGDDGGRLARLPSEYLRDNFHVTTSGNFNPVAFACALDVMGPDRLMFSVDYPMDDNVTGAEFLRNLEVDDDVRRKVAGENALQLFGDKIPRR
Consider B5, for which, in data set [1], the “Enzymatic Detection level” value is “Low” and the “Dicamba Decarboxylase Activity” value is listed as “Low”. Besides, the “Fold Activity” value in data set [2] is reported as 1.9.

B6: 85 (protein, listed as Maritimibacter alkaliphilus)
chain: MAADRKPGLVSVEEGFMIPEVVAELSRIAGGVPSMKSGPIAGPFMDDLLDIGKGRVARMDADGVAVQILALAAPGVQKFDPDTALALSRLTNDRLAEAIAAHPARFGGLAAAPPQAAREGAKELDRAITTLGLNGLIVNSHTNDLYLDDPSFWPLLEAAEALDVPVYLHPREPAAGIEGGLMAMTGFTVGWAYAVETGTHLLRMIAAGVFDRFPRLRIVLGHLGEMIPFMLDRIDNRYPFEMGVTGAKPLPRKPSDYFRDHVTVATSGMNFNAPMRAAIEVLGADKVMFAADYPMERQDEEVAKFAALDLTPDERKRIGEDNARRVFGL
As for B6, in data set [1], the “Enzymatic Detection level” value is on record as “Low” and the “Dicamba Decarboxylase Activity” value is “Low”. The “Fold Activity” value in data set [2] was determined as 1.4.

B7: 82 (protein, listed as Rhodopseudomonas palustris)
chain: MAQNETPVIAIEEHYWDPEMVARFPAGENASPFSTLLTELGDVRLRAMDEAGIDVQVLSHGAPAAQKLPPDVAPELTRRVNDRLAEACARFPNRFAAFAALPTPAPEAAARELERCVRDLGFKGAMIHGLTNGLFIDDKRFWPIFEVAEKLDVPIYLHPSVPHADVTRYYYDDYAREFPTVIRPAWGFTVETATQAIRLILSRALESYPRLQIILGHLGETLPFLLWRINQALARPGQTPLDFRKQFCDHFHVTTSGFFSTPALICTMLELGIDRIMFAVDYPYVVNRDGTDWVQQLQISPDDKRKLVGGNARRLLKL
As for B7, in data set [1], the “Enzymatic Detection level” value is “Low” and the “Dicamba Decarboxylase Activity” value is “Low”. In addition, the “Fold Activity” value in data set [2] was determined as 0.9.

B8: 80 (protein, listed as Cordyceps militaris)
chain: MAAASTPVVVDIHTHMYPPSYIAMLEKRQTIPLVRTFPQADEPRLILLSSELAALDAALADPAAKLPGRPLSTHFASLAQKMHFMDTNGIRVSVISLANPWFDFLAPDEAPGIADAVNAEFSDMCAQHVGRLFFFAALPLSAPVDAVKASIERVKNLKYCRGIILGTSGLGKGLDDPHLLPVFEAVADAKLLVFLHPHYGLPNEVYGPRSEEYGHVLPLALGFPMETTIAVARMYMAGVFDHVRNLQMLLAHSGGTLPFLAGRIESCIVHDGHLVKTGKVPKDRRTIWTVLKEQIYLDAVIYSEVGLQAAIASSGADRLMFGTDHPFFPPIEEDVQGPWDSSRLNAQAVIKAVGEGSSDAAAVMGLNAVRVLSLKAE
Take B8: in data set [1], the “Enzymatic Detection level” value is reported as “Low” and the “Dicamba Decarboxylase Activity” value was “Low”. In addition, in data set [2], the “Fold Activity” value turned out to be 0.8.

B9: 74 (protein, listed as Ramlibacter tataouinensis)
chain: MATVIDVHTHMFTTKWLELLKKEGGQYNIQTRPDGQQEIFRGNTPVVIPQKGHFDWKLRIQHMDQAGIDVSVVSLTCPNVYWGGEDVSVRAAREANDNVAQAQTAYPDRIRWFASLPWEYMATVIDVHTHMFTTKWLELLKKEGGQYNIQTRPDGQQEIFRGNTPVVIPQKGHFDWKLRIQHMDQAGIDVSVVSLTCPNVYWGGEDVSVRAAREANDNVAQAQTAYPDRIRWFASLPWEYPQRAVEELERSCAQGAAGVMVLANVAGRSLTDPLFAPVWAEIDRRALPVLVHPTDPPGVDLMDMTKFDLSWSVGFMFDTTLAITRMIFEGFFDRYPNLRIIASHGGGTLPYLVGRFEKGDEVELASRRQMKRKPTDYLRHIHYDCITYNLGALQYLISVVGAGQVMFGTDWPHWVHDTRGAFANTAQLPQEQTRAVRGANAQRLFKL
For the molecule B9, in data set [1], the “Enzymatic Detection level” value is on record as “Low” and the “Dicamba Decarboxylase Activity” value was “Low”. In data set [2], the “Fold Activity” value is given as 1.4.

B10: 76 (protein, listed as Polymorphum gilvum)
chain: MAKKIDIFNHIWPEPFFKALIAHIGEMTDITMRSGAVPMMTNLDRRFEVMDMFGPDYMQVLSLASPPLEKLADPAKALELSRIGSDSLAELCQRYPERFPAFIGTAPLSNPAAVVGECRRAIEDLGAAGMQIFTNVAGKPLDLAEFEPFFEYMASAGKPVWLHPARGEAFADYQTEKRSEYEIWWTFGWPYETSAAMARLVFSRMFDKYPGLKVITHHAGGMVPFFEGRVGPGWDQMGARTTDRDLAAVRKALKRPHLDYFKEFYADTASFGSRKAIEHAIEFFGEDRVLFASDAPFDPEGGPMYIRETMRCIDSLDLTDAQRRKIYHGNATALLGLSL
Regarding B10, in data set [1], the “Enzymatic Detection level” value is “No” and the “Dicamba Decarboxylase Activity” value is on record as “No”. In addition, the “Fold Activity” value in data set [2] was 1.1.

B11: 78 (protein, listed as Marinobacter adhaerens)
chain: MALIDLHAHAPHPDYYDQHPHWGPAFELQSDGDIKLRVGHWVLSLGAPERKQALREAHARGETLDVQEYMAKWRDPEHRLASMDAAGQNAQVLSVPSHCYMYWAEPEFGVPFAKKVNDSLAEYCSAAPDRLMFWAHAPLNVPKEAAKEIRRACTELGAKGLVAGGSNFGGLEFDSPEMDPVWEALCDLDLPMFVHGYNQSVTWGEEANTDRYETTAIVGMNYDESKCFWYMINGGVFDRFPNLKVYITHGGGFVPYQLGRMAQTNPNLDTYHNKKPFLEYLKNFYFDVELHEVPMRQAMVEVIGADRVLYGSNFGGSDAVRHDLTDDLKLSQEDLDKIRWKNACDLLHLDPNKLGKVRG
Regarding B11, in data set [1], the “Enzymatic Detection level” value is “Low” and the “Dicamba Decarboxylase Activity” value was “Low”. The “Fold Activity” value in data set [2] came to 1.1.

B12: 77 (protein)
chain: MALIDLHAHAPHPGYYNQHPHWGPFFERHEDGDVKLRVGDWILTLGSPERKALVRAGKGPTVEEYQARWADPKVRLAGMDAAGQNAQVVSVPSHCYMYWAEKEFSVPFATKVNDTFAEYCSAAPDRLMFWAHAALNAPEQAALELRRACTELGAKGLVAGGANFGGLEFDSPELDPVWKVLCDLDLPMFIHGYNQSVTWGKKANDDRYETTAIVGMQYDETRCFWNLVCGGVLDRFPGLKVYITHGGGYVPYQLGRLAQCNGNLDVAHNKKPVLEYLKNNFYFDVELHEVPMRQALIDIIGADRVLYGSNFGGSDAVRHDLTEGLRLSDDDLQKIRWKNACKLLHLDPAKIGEPAKKQAVSA
modifications: Burkholderia xenovorans
Consider B12, for which, in data set [1], the “Enzymatic Detection level” value is “No” and the “Dicamba Decarboxylase Activity” value is reported as “No”. Further, the “Fold Activity” value in data set [2] was determined as 1.3.

The values are drawn from US20160053277A1, “Compositions Having Dicamba Decarboxylase Activity and Methods of Use” (PIONEER HI-BRED INTERNATIONAL, INC., priority 2013, published 2016).
